Key:
Test in all cases: EMSA
Details in all cases: 10 mM Tris-HCl pH 7.4, 50 mM KCl, 1 mM DTT, 100 mg/mL BSA (so in the source), 5 ng/mL poly[dI-dC], 200 uM c-di-GMP, 30 C 20 min; 5% native PAGE with 50 uM c-di-GMP …
[1] = target: T1, MrkH-8xHis (Klebsiella pneumoniae AJ218) (UniProt G3FT00)
T1 sequence: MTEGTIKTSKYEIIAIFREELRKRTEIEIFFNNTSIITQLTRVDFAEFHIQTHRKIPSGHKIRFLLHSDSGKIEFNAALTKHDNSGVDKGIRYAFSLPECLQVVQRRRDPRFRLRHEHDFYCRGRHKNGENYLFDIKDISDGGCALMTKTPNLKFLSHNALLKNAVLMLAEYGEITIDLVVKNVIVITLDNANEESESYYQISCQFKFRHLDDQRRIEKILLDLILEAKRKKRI

[2] = target: T2, MrkH 15AS16-8xHis internal_change (Klebsiella pneumoniae AJ218) (UniProt G3FT00)
T2 sequence: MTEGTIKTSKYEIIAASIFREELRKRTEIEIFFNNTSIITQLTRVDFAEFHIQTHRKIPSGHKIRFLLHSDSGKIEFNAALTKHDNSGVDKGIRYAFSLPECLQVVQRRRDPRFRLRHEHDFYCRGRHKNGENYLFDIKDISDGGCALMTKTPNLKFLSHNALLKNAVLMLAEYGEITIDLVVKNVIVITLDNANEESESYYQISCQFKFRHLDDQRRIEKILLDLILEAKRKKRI

[3] = target: T3, MrkH 202AS203-8xHis internal_change (Klebsiella pneumoniae AJ218) (UniProt G3FT00)
T3 sequence: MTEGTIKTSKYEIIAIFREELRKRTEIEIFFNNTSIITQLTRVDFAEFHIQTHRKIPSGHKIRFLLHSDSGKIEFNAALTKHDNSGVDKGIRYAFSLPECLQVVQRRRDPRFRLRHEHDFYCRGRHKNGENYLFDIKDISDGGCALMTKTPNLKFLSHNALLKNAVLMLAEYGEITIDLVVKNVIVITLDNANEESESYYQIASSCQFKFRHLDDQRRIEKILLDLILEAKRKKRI

[4] = target: T4, MrkH 217AS218-8xHis internal_change (Klebsiella pneumoniae AJ218) (UniProt G3FT00)
T4 sequence: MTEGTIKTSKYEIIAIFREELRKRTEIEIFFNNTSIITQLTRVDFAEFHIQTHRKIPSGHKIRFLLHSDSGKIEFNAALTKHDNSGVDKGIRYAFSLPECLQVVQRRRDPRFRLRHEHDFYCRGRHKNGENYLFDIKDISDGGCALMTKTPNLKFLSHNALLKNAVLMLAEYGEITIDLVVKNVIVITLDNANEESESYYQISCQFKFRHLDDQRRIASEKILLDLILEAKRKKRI

[5] = target: T5, MrkH 39AS40-8xHis internal_change (Klebsiella pneumoniae AJ218) (UniProt G3FT00)
T5 sequence: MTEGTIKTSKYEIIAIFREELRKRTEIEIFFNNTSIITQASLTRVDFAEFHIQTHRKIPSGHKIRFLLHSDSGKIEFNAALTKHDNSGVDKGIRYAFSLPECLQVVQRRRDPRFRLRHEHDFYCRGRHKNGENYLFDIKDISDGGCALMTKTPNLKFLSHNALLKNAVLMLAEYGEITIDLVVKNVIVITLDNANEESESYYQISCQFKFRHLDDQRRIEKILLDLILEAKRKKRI

Sequence | binding [1] | binding [2] | binding [3] | binding [4] | binding [5]
GCTGTTGCGGTCACTTTCTCTCGCTCTGGCGTTAGGCTTGCTGCGCTGTAAACAACCACCCTCGCGTTTTCATCTAAGAATGACTGTTTATTAATAGTCGATGGTTATCTGTTATATAACTTAATGAAACGTGAACAAATGTATATTTGTCGGCGAATAAATAGCATTCTTTGACGCCGATAGCACCAGCGAACTTATATTTTTAGGTTCGTTACCTGACGCCTTAAATATTGCGGCTCCCGGTCAGTCGAAGATTCTATTAGCAGTGGC (double strand) [mrkA fragment, MrkH box mut-6] | binds more weakly | – | – | – | –
GCTGTTGCGGTCACTTTCTCTCGCTCTGGCGTTAGGCTTGCTGCGCTGTAAACAACCACCCTCGCGTTTTCATCTATCAATGACTGTTGCAGCATAGTCGATGGTTATCTGTTATATAACTTAATGAAACGTGAACAAATGTATATTTGTCGGCGAATAAATAGCATTCTTTGACGCCGATAGCACCAGCGAACTTATATTTTTAGGTTCGTTACCTGACGCCTTAAATATTGCGGCTCCCGGTCAGTCGAAGATTCTATTAGCAGTGGC (double strand) [mrkA fragment, UP mutation] | binds | – | – | – | –
GCTGTTGCGGTCACTTTCTCTCGCTCTGGCGTTAGGCTTGCTGCGCTGTAAACAACCACCCTCGCGTTTTCATCTATCAATGACTGTTTATTAATAGTCGATGGTTATCTGTTATATAACTTAATGAAACGTGAACAAATGTATATTTGTCGGCGAATAAATAGCATTCTTTGACGCCGATAGCACCAGCGAACTTATATTTTTAGGTTCGTTACCTGACGCCTTAAATATTGCGGCTCCCGGTCAGTCGAAGATTCTATTAGCAGTGGC (double strand) [mrkA promoter fragment, wild type] | binds | binds | no binding | no binding | binds
GCTGTTGCGGTCACTTTCTCTCGCTCTGGCGTTAGGCTTGCTGCGCTGTAAACAACCACCCTCGCGTTTTCATCTCCCAATGACTGTTTATTAATAGTCGATGGTTATCTGTTATATAACTTAATGAAACGTGAACAAATGTATATTTGTCGGCGAATAAATAGCATTCTTTGACGCCGATAGCACCAGCGAACTTATATTTTTAGGTTCGTTACCTGACGCCTTAAATATTGCGGCTCCCGGTCAGTCGAAGATTCTATTAGCAGTGGC (double strand) [mrkA fragment, MrkH box mut-5] | binds more weakly | – | – | – | –

— paper PMC3828302
